These results are taken from PMC10522976 (Molecular Therapy Oncolytics, 2023).

B1: human recombinant mesothelin (MSLN), residues 296-606, His tag (domain or fragment, UniProt Q13421 296-606, looked up)
chain: EVEKTACPSGKKAREIDESLIFYKKWELEACVDAALLATQMDRVNAIPFTYEQLDVLKHKLDELYPQGYPESVIQHLGYLFLKMSPEDIRKWNVTSLETLKALLEVNKGHEMSPQVATLIDRFVKGRGQLDKDTLDTLTAFYPGYLCSLSPEELSSVPPSSIWAVRPQDLDTCDPRQLDVLYPKARLAFQNMNGSEYFVKIQSFLGGAPTEDLKALSQQNVSMDLATFMKLRTDAVLPLTVAEVQKLLGPHVEGLKAEERHRPVRDWILRQRQDDLDTLGLGLQGGIPNGYLVLDLSMQEALSGTPCLLGP
B2: VH 3C9 (human antibody heavy chain variable domain) (VHH)
VHH: DVQLVESGGGVVQPGRSLRLSCAASGFTFSSYAMHWVRQAPGKGLEWVSSISGNSLYKYYADSVKGRFTISRDDSTNTLYLQMNSLRAEDTATYYCTRHWAVGNWGQGTLVTVSS

In one experiment the target is VH-Fc 3C9-YF750 (human). Nature of the experiment: ELISA.
For experiment [1], the target named is VH-Fc 3C9 (VH 3C9 fused with human IgG1 Fc, bivalent) (human). Nature of the experiment: SPR. On the technique in general: In SPR one partner is held on a chip, and binding of the other changes the refractive index at the surface.
The target in the next experiment is mouse MSLN (Mus musculus, UniProt Q61468). Nature of the experiment: ELISA. In general terms: An ELISA detects its analyte on a solid surface through an enzyme-linked reagent.
Experiment [2] addresses B1. The experiment is described as follows: ELISA.
For experiment [3], the target named is B1. Nature of the experiment: SPR.

One may read the EC50 as the concentration that produces a half-maximal response.

Sequence of mouse MSLN (Q61468 36-600): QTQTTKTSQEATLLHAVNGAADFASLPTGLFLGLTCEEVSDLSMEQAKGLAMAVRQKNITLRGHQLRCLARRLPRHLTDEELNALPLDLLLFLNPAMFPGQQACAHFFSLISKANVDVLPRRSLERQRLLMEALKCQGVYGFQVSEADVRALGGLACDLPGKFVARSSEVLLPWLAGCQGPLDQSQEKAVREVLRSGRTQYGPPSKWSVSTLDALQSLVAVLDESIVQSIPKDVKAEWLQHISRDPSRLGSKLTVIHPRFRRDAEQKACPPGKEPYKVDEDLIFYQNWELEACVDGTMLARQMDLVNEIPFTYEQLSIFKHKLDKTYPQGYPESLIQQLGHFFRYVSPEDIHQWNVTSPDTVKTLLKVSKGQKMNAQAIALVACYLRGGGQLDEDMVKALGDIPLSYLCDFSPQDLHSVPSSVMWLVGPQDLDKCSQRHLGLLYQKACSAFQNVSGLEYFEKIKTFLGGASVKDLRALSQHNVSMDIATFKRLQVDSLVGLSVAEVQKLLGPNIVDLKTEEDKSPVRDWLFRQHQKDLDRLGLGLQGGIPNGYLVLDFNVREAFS

Turning to B1, the binding result with VH-Fc 3C9-YF750 is on record as “binds”. This molecule also had a Kd in experiment [1] of 7 nM.
Regarding B2, the binding result with mouse MSLN is on record as “no binding”. The EC50 in experiment [2] is under 10 nM. Besides, in experiment [3], the Kd was under 3 nM.
